The values below come from patent US20200407456A1 (AP BIOSCIENCES, published 2020).

In experiment [1] the target is T1, CD137 expressed on cells (HEK-293F/CD137 cells); PMA/ionomycin-activated Jurkat cells; CD137 reporter HEK293 … (UniProt Q07011 24-255, limits assumed).
T1 construct: whole, on cells; One entry is used for CD137 on transfected HEK293/293F cells and for CD137 induced on Jurkat cells; also called 293F cells stably expressing CD137; CD137-overexpressing HEK-293F cells
Kind of experiment: flow cytometry on HEK-293F/CD137 cells, antibody 50 µg/ml, anti-human Fc-A488. A general note: Flow cytometry measures light scatter and fluorescence of single cells or particles in a stream.

For experiment [2], the target named is T2, recombinant human CD137-ECD-Fc (APBio Inc.) (human, UniProt Q07011 24-186).
T2 construct: extracellular domain; Made by APBio; also called CD137-Fc recombinant protein; recombinant CD137/Fc; not shown: IgG4 Fc
Kind of experiment: ELISA on coated human CD137-IgG4 Fc.

T1 sequence (Q07011 24-255 limits assumed): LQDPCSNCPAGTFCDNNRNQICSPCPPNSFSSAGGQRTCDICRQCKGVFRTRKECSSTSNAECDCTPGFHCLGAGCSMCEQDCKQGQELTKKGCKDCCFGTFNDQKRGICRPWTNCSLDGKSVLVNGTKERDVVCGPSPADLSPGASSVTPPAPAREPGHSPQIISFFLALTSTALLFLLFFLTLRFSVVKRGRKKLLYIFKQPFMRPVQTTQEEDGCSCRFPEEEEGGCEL
T2 sequence (Q07011 24-186): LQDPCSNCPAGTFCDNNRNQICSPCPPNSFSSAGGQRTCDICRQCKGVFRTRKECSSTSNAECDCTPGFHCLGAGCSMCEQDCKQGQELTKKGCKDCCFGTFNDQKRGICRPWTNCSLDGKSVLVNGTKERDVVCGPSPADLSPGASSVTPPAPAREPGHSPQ

B1: anti-CD137 antibody clone 15 (antibody, human IgG4 S228P, lambda, V domains shown)
VH: QVQLVQSGAEVKKPGSSVKVSCKASGGTFSSYAISWVRQAPGQGLEWMGRIIPILGIANYAQKFQGRVTITADKSTSTAYMELSSLRSEDTAVYYCASDLYQLLFPYYYGMDVWGQGTTVTVSS
VL: QLVLTQPPSASASLGASVTLTCTLSSGYSNYKVDWYQQRPGKGPRFVMRVGTGGIVGSKGDGIPDRFSVLGSGLNRYLTIKNIQEEDESDYHCGADHGSGSNLFWVFGGGTKLTVLG
notes: also called CD137 #15; anti-CD137#15
In the case of B1, the binding result in experiment [1] is recorded as “binds”.

B2: anti-CD137 antibody clone 31 (antibody, human IgG4 S228P, lambda, V domains shown)
VH: not shown
VL: QSALTQPASVSGSPGQSITISCTGTSSDVGAYNFVSWYQQRPGKAPELMIYDVSDRPSGVSNRFSGSKSGNTASLTISGLQTEDEADYYCSSYTSSITRYVFGTGTKVTVLG
notes: also called CD137 #31; anti-CD137#31
B2: the binding result in experiment [2] and in experiment [1] was “binds” in each case.

B3: anti-CD137 antibody clone 54 (antibody, human IgG4 S228P, lambda, V domains shown)
VH: QVQLVQSGAEVKKPGSTVKVSCKASGGTFSSYAISWVRQAPGQGLEWMGRIIPILGIANYAQKFQGRVTITADKSTSTAYMELSSLRSEDTAVYYCASPPYYDSSGYYPLGAFDIWGQGTMVTVSS
VL: SYELTQPPSVSVSPGQTASITCSGDKLGEKYASWYQQKAGQSPILVIYQDSKRPSGIPERFSGSNSGNTATLTISGLQAGDEADYYCQAWDGSSTYVFGTGTKVTVFG
notes: also called CD137 #54; CD137#54
For the molecule B3, the binding result in experiment [2] and in experiment [1] was “binds” each time.
